Source: article PMC6097439 (BMC Biology, 2018)
Substitutions are numbered along the chain they refer to. One block for each binder: values may come before it.

Columns and labels:
[1] = target: Tie2, immobilized for SPR (human, UniProt Q02763 23-1124, Limits of the immobilized Tie2 are not printed. Taken as the mature extracellular domain (the text says extracellular domain of rhTie2 in the dual SPR experiment), ending at Lys745 as in commercial rh); assay: SPR; Tie2 immobilized, Ang2-BD variants as analytes; ProteOn XPR36; steady state fit; as previously described [54]; conditions: both partners purified
Sequence of Tie2, immobilized for SPR (Q02763 23-1124): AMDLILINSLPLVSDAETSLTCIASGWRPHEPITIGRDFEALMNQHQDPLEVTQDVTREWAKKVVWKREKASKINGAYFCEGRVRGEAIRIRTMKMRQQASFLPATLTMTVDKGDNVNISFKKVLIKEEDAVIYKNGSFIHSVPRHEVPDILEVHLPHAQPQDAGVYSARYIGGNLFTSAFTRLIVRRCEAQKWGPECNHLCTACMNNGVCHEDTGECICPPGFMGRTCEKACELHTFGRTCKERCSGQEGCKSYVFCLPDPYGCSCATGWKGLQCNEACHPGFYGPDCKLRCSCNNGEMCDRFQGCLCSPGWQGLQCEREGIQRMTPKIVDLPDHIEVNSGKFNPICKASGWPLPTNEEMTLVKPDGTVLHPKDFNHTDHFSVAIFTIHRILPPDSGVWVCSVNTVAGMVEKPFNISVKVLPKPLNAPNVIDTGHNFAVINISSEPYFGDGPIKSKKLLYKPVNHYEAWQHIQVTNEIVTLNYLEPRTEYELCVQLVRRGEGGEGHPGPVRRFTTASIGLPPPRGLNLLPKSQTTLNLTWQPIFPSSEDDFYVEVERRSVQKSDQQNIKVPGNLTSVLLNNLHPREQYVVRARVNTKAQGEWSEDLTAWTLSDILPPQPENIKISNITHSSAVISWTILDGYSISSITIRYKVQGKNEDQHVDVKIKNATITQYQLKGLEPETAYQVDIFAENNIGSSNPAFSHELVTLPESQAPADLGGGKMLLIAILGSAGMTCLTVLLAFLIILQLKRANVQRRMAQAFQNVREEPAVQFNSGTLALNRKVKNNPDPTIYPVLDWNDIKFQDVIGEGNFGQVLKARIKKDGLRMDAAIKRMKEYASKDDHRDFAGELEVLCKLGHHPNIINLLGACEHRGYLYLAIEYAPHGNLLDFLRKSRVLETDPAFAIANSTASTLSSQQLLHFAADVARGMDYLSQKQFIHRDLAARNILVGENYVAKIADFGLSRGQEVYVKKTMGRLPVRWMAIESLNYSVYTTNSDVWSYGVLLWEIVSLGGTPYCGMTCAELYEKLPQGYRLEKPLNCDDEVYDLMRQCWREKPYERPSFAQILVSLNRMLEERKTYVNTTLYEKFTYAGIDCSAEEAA

[2] = target: T1, recombinant αvβ3 integrin (human, UniProt P06756 31-992; P05106 27-718); assay: SPR; αvβ3 integrin immobilized by amine coupling (GLC chip), 12.5 to 200 nM Ang2-BD variants as analytes, 25 °C, IBB; 1:1 Langmuir model; conditions: both partners purified
T1 construct: human integrin αv subunit (Phe31-Val992); human integrin β3 subunit (Gly27-Asp718); also called solubilized αvβ3 integrin; αvβ3 integrin extracellular domain; source: bought: R&D Systems
T1 sequence (P06756 31-992, chain 1 of 2): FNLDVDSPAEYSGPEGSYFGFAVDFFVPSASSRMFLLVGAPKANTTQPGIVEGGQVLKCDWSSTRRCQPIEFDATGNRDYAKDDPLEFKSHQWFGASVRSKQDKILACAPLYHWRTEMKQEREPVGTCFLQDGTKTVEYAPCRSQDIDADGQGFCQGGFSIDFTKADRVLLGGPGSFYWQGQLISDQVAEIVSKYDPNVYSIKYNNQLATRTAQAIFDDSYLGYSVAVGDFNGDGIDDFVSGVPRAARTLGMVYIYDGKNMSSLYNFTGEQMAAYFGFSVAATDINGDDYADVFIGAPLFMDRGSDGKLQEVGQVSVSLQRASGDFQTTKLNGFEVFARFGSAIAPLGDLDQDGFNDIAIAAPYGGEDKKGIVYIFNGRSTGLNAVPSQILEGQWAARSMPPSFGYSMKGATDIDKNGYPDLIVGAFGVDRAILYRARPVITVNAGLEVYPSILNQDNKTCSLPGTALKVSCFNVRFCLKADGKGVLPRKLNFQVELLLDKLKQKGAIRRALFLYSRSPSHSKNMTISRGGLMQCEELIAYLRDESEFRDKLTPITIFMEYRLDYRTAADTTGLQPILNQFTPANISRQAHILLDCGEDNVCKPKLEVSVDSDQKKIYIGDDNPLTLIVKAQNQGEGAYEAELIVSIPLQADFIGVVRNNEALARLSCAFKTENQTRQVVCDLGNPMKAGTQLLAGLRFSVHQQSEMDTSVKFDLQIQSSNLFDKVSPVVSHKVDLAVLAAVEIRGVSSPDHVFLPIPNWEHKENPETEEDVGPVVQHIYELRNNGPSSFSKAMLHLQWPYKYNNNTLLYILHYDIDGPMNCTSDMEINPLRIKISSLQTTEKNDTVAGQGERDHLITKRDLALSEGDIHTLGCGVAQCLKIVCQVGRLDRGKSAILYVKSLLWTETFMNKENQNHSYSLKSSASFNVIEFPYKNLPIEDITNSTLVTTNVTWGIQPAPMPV
T1 sequence (P05106 27-718, chain 2 of 2): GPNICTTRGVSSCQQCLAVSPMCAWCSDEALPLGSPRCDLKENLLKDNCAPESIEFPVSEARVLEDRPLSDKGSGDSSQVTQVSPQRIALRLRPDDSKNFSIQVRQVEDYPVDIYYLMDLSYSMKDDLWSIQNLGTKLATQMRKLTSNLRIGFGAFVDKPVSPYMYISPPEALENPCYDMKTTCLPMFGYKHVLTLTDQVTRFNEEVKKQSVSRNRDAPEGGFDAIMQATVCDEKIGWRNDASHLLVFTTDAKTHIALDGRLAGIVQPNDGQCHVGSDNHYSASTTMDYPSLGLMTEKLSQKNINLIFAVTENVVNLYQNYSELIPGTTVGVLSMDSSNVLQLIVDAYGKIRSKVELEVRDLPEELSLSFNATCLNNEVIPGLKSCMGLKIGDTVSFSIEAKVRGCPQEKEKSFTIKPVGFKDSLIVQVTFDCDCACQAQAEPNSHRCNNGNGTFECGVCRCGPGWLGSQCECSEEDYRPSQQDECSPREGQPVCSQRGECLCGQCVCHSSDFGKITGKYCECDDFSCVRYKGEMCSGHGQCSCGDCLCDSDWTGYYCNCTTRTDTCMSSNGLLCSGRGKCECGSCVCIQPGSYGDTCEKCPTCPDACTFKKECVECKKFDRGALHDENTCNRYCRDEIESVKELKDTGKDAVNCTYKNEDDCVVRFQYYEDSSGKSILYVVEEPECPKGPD

[3] = target: Tie2 expressed on TIME cells (human (endogenous in TIME cells), UniProt Q02763 23-1124); assay: cell-based or functional assay
Sequence of Tie2 expressed on TIME cells (Q02763 23-1124): as the sequence (Q02763 23-1124) above

[4] = target: αvβ3 integrin expressed on TIME cells (human (endogenous in TIME cells), UniProt P06756 31-1048; P05106 27-788); assay: cell-based or functional assay
[5] = target: T2, recombinant α5β1 integrin (human, UniProt P08648 42-995; P05556 21-728); assay: SPR; integrins other than αvβ3 immobilized by amine coupling, 1 μM of the Ang2-BD variants as analyte, 25 °C, IBB; conditions: both partners purified
T2 construct: human integrin α5 subunit, extracellular domain; human integrin β1 subunit, extracellular domain; source: bought: R&D Systems

[6] = target: T3, recombinant αvβ8 integrin (human, UniProt P06756 31-992; P26012 43-684); assay: SPR; αvβ5, αvβ1, αvβ6, αvβ8 integrins immobilized, 62.5 to 1000 nM Ang2-BDBC5 as analyte, 25 °C, IBB; two-state binding model; conditions: both partners purified
T3 construct: human integrin αv subunit, extracellular domain; human integrin β8 subunit, extracellular domain; source: bought: R&D Systems
T3 sequence (P06756 31-992, chain 1 of 2): as the sequence (P06756 31-992, chain 1 of 2) above
T3 sequence (P26012 43-684, chain 2 of 2): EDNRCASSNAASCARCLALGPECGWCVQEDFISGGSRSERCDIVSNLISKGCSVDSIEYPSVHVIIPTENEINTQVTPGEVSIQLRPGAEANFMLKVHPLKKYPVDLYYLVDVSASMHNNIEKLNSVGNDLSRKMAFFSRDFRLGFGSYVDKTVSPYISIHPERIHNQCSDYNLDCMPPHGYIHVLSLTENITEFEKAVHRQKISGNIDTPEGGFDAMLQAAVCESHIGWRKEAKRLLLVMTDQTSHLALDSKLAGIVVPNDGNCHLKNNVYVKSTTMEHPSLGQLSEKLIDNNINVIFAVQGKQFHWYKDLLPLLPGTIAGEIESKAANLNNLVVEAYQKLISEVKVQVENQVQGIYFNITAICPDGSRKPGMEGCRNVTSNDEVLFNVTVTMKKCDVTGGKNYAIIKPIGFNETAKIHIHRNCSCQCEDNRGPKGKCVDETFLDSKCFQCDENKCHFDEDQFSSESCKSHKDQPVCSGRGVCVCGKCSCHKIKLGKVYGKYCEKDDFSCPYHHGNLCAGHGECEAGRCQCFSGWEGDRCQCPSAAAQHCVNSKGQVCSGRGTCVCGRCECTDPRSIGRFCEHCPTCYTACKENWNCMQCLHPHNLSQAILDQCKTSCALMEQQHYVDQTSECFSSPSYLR

[7] = target: T4, recombinant αvβ6 integrin (human, UniProt P06756 31-992; P18564 22-709); assay: as above; conditions: both partners purified
T4 construct: human integrin αv subunit, extracellular domain; human integrin β6 subunit, extracellular domain; source: bought: R&D Systems
T4 sequence (P06756 31-992, chain 1 of 2): as the sequence (P06756 31-992, chain 1 of 2) above
T4 sequence (P18564 22-709, chain 2 of 2): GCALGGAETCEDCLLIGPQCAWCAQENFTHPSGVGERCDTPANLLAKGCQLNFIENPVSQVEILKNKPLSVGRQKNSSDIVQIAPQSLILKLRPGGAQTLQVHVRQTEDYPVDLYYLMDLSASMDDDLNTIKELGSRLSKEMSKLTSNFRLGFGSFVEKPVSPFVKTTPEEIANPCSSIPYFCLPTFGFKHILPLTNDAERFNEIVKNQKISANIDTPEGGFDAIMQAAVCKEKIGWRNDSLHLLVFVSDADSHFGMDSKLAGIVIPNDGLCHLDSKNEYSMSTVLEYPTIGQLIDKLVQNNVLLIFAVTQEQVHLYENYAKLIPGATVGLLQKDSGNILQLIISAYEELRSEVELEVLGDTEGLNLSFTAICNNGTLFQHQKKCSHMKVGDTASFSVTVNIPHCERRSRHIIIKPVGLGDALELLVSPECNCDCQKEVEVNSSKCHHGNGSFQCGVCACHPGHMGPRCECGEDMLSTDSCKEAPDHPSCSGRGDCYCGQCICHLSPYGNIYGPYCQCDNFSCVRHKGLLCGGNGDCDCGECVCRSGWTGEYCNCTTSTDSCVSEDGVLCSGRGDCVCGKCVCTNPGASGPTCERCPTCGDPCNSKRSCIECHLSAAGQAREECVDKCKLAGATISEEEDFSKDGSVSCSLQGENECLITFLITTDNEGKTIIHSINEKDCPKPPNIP

[8] = target: T5, recombinant αvβ1 integrin (human, UniProt P06756 31-992; P05556 21-728); assay: as above; conditions: both partners purified
T5 construct: human integrin αv subunit, extracellular domain; human integrin β1 subunit, extracellular domain; source: bought: R&D Systems
T5 sequence (P06756 31-992, chain 1 of 2): as the sequence (P06756 31-992, chain 1 of 2) above
T5 sequence (P05556 21-728, chain 2 of 2): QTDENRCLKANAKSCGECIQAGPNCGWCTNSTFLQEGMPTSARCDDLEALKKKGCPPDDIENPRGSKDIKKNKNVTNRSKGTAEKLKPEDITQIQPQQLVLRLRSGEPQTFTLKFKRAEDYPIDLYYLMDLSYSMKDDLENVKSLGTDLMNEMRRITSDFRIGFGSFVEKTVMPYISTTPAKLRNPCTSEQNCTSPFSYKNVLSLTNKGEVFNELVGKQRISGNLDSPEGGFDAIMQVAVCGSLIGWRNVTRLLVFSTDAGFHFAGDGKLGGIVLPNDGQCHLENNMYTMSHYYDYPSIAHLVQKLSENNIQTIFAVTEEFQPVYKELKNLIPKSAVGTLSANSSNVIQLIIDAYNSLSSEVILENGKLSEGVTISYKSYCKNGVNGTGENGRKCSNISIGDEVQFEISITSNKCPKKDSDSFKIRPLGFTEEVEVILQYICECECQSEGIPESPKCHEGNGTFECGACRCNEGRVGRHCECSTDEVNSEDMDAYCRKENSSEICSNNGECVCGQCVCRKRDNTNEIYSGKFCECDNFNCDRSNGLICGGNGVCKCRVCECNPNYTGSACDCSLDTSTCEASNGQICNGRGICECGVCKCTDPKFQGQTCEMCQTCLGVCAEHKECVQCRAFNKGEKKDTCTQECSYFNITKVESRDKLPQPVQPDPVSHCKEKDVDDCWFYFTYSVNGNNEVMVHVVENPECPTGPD

[9] = target: T6, recombinant αvβ5 integrin (human, UniProt P06756 31-992; P18084 24-719); assay: as above; conditions: both partners purified
T6 construct: human integrin αv subunit, extracellular domain; human integrin β5 subunit, extracellular domain; source: bought: R&D Systems

B2: Ang2-BDBC6, soluble protein (designed binder)
chain: FRDCAEVFKSGHTTNGIYTLREGRGDNVDIKAYCDMEAGGGGWTIIQRREDGSVDFQRTWKEYKVGFGNPSGEYWLGNEFVSQLTNQQRYVLKIHLKDWEGNEAYSLYEHFYLSSEELNYRIHLKGLTGTAGKISSISQPGNDFSTKDGDNDKCICKCSQMLTGGWWFDACGPSNLNGMYYPQRQNTNKFNGIKWYYWKGSGYSLKATTMMIRPADF
notes: also called Ang2-BD bi-specific variant; source: Pichia (Multi-Copy Pichia Expression Kit), purified from yeast culture supernatant (HisTrap, Superdex 200)
Kd [1]: 1260 nM
Kd [2]: 2.97 nM
koff [2]: 0.000236 s⁻¹
kon [2]: 79400 M⁻¹ s⁻¹
decrease in Tie2 phosphorylation intensity, TIME cells on vitronectin, 500 ng/ml FL-Ang1 with 1 μM variant (blocks FL-Ang1 on Tie2) [3]: 64%
decrease in adhesion of TIME cells to vitronectin-coated plates, 1 μM variant, with 500 ng/ml FL-Ang1 (blocks αvβ3 integrin on vitronectin) [4]: 35%
decrease in adhesion of TIME cells to vitronectin-coated plates, 1 μM variant, without FL-Ang1 (blocks αvβ3 integrin on vitronectin) [4]: 39%
binding result [5]: binds

B4: Ang2-BDBC5, soluble protein (designed binder)
chain: B2 chain with R21N, E22T, G23C, N27C, V28L, D29P
notes: as for B2
Kd [1]: 1360 nM
Kd [2]: 14.9 nM
koff [2]: 0.000444 s⁻¹
kon [2]: 29900 M⁻¹ s⁻¹
Kd [6]: 138 nM
Koff1 (two-state model, step 1) [6]: 0.00505 s⁻¹
Koff2 (two-state model, step 2) [6]: 0.00215 s⁻¹
Kon1 (two-state model, step 1) [6]: 36600 M⁻¹ s⁻¹
Kon2 (two-state model, step 2) [6]: 0.0024 s⁻¹
Kd [7]: 364 nM
Koff1 (two-state model, step 1) [7]: 0.00835 s⁻¹
Koff2 (two-state model, step 2) [7]: 0.00106 s⁻¹
Kon1 (two-state model, step 1) [7]: 22900 M⁻¹ s⁻¹
Kon2 (two-state model, step 2) [7]: 0.0032 s⁻¹
Kd [8]: 550 nM
Koff1 (two-state model, step 1) [8]: 0.00629 s⁻¹
Koff2 (two-state model, step 2) [8]: 0.00197 s⁻¹
Kon1 (two-state model, step 1) [8]: 11400 M⁻¹ s⁻¹
Kon2 (two-state model, step 2) [8]: 0.00304 s⁻¹
Kd [9]: 65 nM
Koff1 (two-state model, step 1) [9]: 0.00259 s⁻¹
Koff2 (two-state model, step 2) [9]: 0.00035 s⁻¹
Kon1 (two-state model, step 1) [9]: 39800 M⁻¹ s⁻¹
Kon2 (two-state model, step 2) [9]: 0.00544 s⁻¹
decrease in Tie2 phosphorylation intensity, TIME cells on vitronectin, 500 ng/ml FL-Ang1 with 1 μM variant (blocks FL-Ang1 on Tie2) [3]: 67%
decrease in adhesion of TIME cells to vitronectin-coated plates, 1 μM variant, with 500 ng/ml FL-Ang1 (blocks αvβ3 integrin on vitronectin) [4]: 53%
decrease in adhesion of TIME cells to vitronectin-coated plates, 1 μM variant, without FL-Ang1 (blocks αvβ3 integrin on vitronectin) [4]: 30%
binding result [5]: binds

The remaining binders from weak to strong by Kd [1], led by results:

Kd [1]: 950 nM
Kd [2]: 4.17 nM
koff [2]: 0.000429 s⁻¹
kon [2]: 103000 M⁻¹ s⁻¹
decrease in Tie2 phosphorylation intensity, TIME cells on vitronectin, 500 ng/ml FL-Ang1 with 1 μM variant (blocks FL-Ang1 on Tie2) [3]: 67%
decrease in adhesion of TIME cells to vitronectin-coated plates, 1 μM variant, with 500 ng/ml FL-Ang1 (blocks αvβ3 integrin on vitronectin) [4]: 37%
decrease in adhesion of TIME cells to vitronectin-coated plates, 1 μM variant, without FL-Ang1 (blocks αvβ3 integrin on vitronectin) [4]: 47%
binding result [5]: binds
B3: Ang2-BDBC10, soluble protein (designed binder)
chain: B2 chain with R21Y, E22P, V28P
notes: as for B2

Kd [1]: 660 nM
B1: Ang2-BDWT, soluble protein (domain or fragment, UniProt O15123 281-496, looked up)
chain: FRDCAEVFKSGHTTNGIYTLTFPNSTEEIKAYCDMEAGGGGWTIIQRREDGSVDFQRTWKEYKVGFGNPSGEYWLGNEFVSQLTNQQRYVLKIHLKDWEGNEAYSLYEHFYLSSEELNYRIHLKGLTGTAGKISSISQPGNDFSTKDGDNDKCICKCSQMLTGGWWFDACGPSNLNGMYYPQRQNTNKFNGIKWYYWKGSGYSLKATTMMIRPADF
notes: The limits 281-496 are stated for the Ang2-BDWT gene; also called wild-type Ang2 BD; mono-specific Ang2-BDWT; source: Pichia (Multi-Copy Pichia Expression Kit), purified from yeast culture supernatant (HisTrap, Superdex 200)
